Measured values reported in US20170291959A1 (SORRENTO THERAPEUTICS, published 2017).

Molecular target: T1, CD38 on Ramos cells (human, UniProt P28907 1-300)
T1 construct: whole, on cells; also called CD38 expressing cells; Ramos target cells
Assay: ADCC assay on Ramos cells (binding inferred from it)
Method: The ability of anti-CD38 antibodies to bind to CD38 expressing cells and promote functional activity was determined using an antibody-dependent cell-mediated cytotoxicity (ADCC) assay. In this assay, Ramos cells, a Burkitt's lymphoma cell line, were added to wells at 5×10³ cells per well. Test antibodies (C38A2 (“38-A2”), C38D8 (“38-D8”) and C38D4 (“38-D4”) and control IgG) were then added at 1 microgram per ml and incubated with the Ramos cells for 20 minutes at 37° C. After washing, the effector cells were added at different concentrations resulting in three effector-to-target ratios. The effector cells were purified natural killer (NK) cells that had been incubated overnight in the presence of IL-2 (100 U/ml). The assay was allowed to proceed for at least 4 hours after which time cytotoxicity was evaluated using a Promega Cyto-glo kit.

Row | binding result | Binder
1 | binds | C38A2 (antibody, V domains shown, tested as an antibody beside an IgG matched control in the ADCC assay) VH: QVQLVESGGGLVKPGGSLRLSCAASGFTFSDDYMSWIRQAPGKGLEWVASVSNGRPTTYYADSVRGRFTISRDNAKNSLYLQMNSLRAEDTAVYYCAREDWGGEFTDWGRGTLVTVSS VL: QAGLTQPPSASGTSGQRVTISCSGSSSNIGINFVYWYQHLPGTAPKLLIYKNNQRPSGVPDRFSGSKSGNSASLAISGLRSEDEADYYCAAWDDSLSGYVFGSGTKVTVL
2 | binds | C38D8 (antibody, V domains shown, tested as an antibody beside an IgG matched control in the ADCC assay) VH: QVQLVESGGGVVQPGGSLRLSCAASGFIVSTNYVHWVRQAPGKGLEWVSGIYSDPYTSYAYSDSVKGRFTISRDMSKNTVYLQMNRLRAEDTAVYYCARETNTGFSNSWYLDFWGQGTLVTVSS VL: not shown
